{"source": "patent US20240309050A1", "key": {"[1]": {"target": "gHgL antigen protein of EB virus (EB virus (M81 strain))", "test": "BLI (Octet), AMMO1 on protein A sensor, antigen (row label gHgL) in solution 3.125-200 nM, 1:1 fit"}, "[2]": {"target": "gHgL-I53-50A1 subunit (EB virus (M81 strain) for the gH and gL parts)", "test": "BLI (Octet), AMMO1 on protein A sensor, antigen (row label gHgL-I53-50A1) in solution 3.125-200 nM, 1:1 fit"}, "[3]": {"target": "gHgL-I53-50 NP self-assembled nanoparticle (EB virus (M81 strain) for the gH and gL parts)", "test": "BLI (Octet), AMMO1 on protein A sensor, antigen (row label gHgL-I53-50 NP) in solution 3.125-200 nM, 1:1 fit"}}}
{"substance": "neutralizing antibody AMMO1", "values": [{"measurement": "Kd", "setting": "[1]", "result": 0.432, "unit": "nM"}, {"measurement": "Kd", "setting": "[2]", "result": 0.242, "unit": "nM"}, {"measurement": "Kd", "setting": "[3]", "result": 0.0339, "unit": "nM"}]}
